Experimental data as given in PMC3755756.

Molecular target: ubiquitin (15N-Ub) (UniProt P0CG48)
Assay: NMR titration

“V domain of S. castelli Bro1 (domain or fragment)” gave a Kd relative to the V domains of Alix and HD-PTP (~50 μM) of 5 fold.
